T1: truncated cTfR1 of SEQ ID NO:123 (cynomolgus monkey, UniProt Q5RDH6 122-760 (Pongo abelii entry))
T1 construct: also called cynomolgus TfR1
T1 chain: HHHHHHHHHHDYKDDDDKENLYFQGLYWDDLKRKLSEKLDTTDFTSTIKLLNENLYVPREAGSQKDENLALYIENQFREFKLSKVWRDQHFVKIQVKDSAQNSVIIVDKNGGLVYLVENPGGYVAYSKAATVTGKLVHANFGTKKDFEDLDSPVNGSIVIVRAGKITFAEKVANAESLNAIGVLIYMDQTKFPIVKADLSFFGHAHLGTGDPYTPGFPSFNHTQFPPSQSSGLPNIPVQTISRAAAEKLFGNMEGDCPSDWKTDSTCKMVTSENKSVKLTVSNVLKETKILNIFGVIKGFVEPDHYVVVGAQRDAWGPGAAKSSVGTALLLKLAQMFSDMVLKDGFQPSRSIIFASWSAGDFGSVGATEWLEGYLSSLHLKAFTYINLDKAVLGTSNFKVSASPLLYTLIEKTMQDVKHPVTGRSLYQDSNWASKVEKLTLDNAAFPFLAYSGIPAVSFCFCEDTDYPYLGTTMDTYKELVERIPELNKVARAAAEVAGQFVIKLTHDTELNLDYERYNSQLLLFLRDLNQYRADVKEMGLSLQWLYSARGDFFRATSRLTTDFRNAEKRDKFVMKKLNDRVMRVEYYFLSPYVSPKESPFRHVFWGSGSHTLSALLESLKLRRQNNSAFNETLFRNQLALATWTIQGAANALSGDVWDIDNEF


What was measured:
[1] = molecular target: T2, truncated hTfR1 of SEQ ID NO:122 (human, UniProt P02786 122-760); assay: SPR, TfR1 amine-coupled, Fab injected, 1:1 fit
T2 construct: also called human TfR1; Human TfR1
T2 sequence (P02786 other isoform, or with tags, fused parts or gaps limits assumed): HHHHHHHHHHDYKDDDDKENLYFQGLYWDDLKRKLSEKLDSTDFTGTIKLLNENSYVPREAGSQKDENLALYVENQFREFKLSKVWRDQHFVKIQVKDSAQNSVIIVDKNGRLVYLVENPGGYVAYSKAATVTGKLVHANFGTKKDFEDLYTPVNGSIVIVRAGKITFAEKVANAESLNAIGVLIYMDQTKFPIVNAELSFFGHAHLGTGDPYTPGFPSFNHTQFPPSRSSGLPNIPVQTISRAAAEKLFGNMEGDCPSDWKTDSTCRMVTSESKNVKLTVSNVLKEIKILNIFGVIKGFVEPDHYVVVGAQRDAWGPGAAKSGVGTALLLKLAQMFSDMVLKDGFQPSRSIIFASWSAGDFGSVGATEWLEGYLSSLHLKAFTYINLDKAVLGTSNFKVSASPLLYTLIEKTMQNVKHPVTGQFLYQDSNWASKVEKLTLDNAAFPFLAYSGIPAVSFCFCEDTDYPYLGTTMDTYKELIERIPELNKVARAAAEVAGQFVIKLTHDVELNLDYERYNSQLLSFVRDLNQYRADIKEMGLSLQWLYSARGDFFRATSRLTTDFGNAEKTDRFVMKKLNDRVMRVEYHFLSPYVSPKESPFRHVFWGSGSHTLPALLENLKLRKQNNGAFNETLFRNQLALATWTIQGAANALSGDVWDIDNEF
Method: (§1) Binding of the purified Fabs to human and cynomolgus TfR1 was evaluated using either SPR (FIG. 44) or indirect ELISA (FIG. 45). For SPR, a Biacore 8K instrument (Cytiva) was used. […] The Fabs were injected over the chip using a 2-fold dilution series in four steps starting at 100 nM. The interaction was measured using the single cycle kinetics method with a contact time of 120 s at a flow rate of 30 μl/min followed by a dissociation time of 1000 s. Regeneration of the surface between cycles was done by injecting 3M MgCl₂. The binding data was fitted to a 1:1 interaction model. The Fabs were diluted in HBS-EP+ (Cytiva, #BR100669). Experiments were performed at 25° C.

[2] = molecular target: T1, truncated cTfR1 of SEQ ID NO:123; assay: SPR, TfR1 amine-coupled, Fab injected, 1:1 fit
Method: as §1

[3] = molecular target: T3, ectodomain of human TfR1 (His10-hTfR1; SEQ ID NO:110) (human, UniProt P02786 89-760); assay: indirect ELISA: plate coated with 1 µg/ml hTfR1 ectodomain, Fab in 1:3 serial dilution, anti-human IgG F(ab')2-HRP
T3 construct: also called ectodomain of hTfR1
Method: For the indirect ELISA, half area 96-well plates (Corning, #3690) were coated with 1 μg/ml recombinant ectodomain of hTfR1 (SEQ ID NO:110) in PBS overnight at 4° C. The coated plates were blocked using Pierce protein-free blocking solution (Thermo Fisher Scientific, #37572) for 1 h at room temperature with shaking and washed four times in PBS containing 0.1% TWEEN-20. Serial dilutions (1:3) of various expressed constructs in incubation buffer (1% BSA, 0.1% TWEEN-20 in PBS) were incubated for 1 h at room temperature. […] Following four wash steps, K-Blue® Aqueous TMB substrate (Neogen, #331177) was added to the wells for 15 min at room temperature before the reaction was stopped with 1:1 dilution of 0.5 M H₂SO₄. The optical density at 450 nm was recorded (Spark, Tecan) and background signal was subtracted before analysis.

Row | Binder | Kd [1] [nM] | Kd [2] [nM] | binding result [3]
1 | h26D3 variant HC8 Fab (Fab, V domains shown, Single-mutant His-tagged Fab; also called Y60A) VH: EVQLVQSGAEVKKPGSSVKVSCKASGYIFTDYNMDWVRQAPGQGLEWIGDINPDYDTTSANEKFKGRATLTVDKSTSTAYMELSSLRSEDTAVYYCARGGYSGSSYYHPMDYWGQGTLVTVSS VL: DIQMTQSPSSVSASVGDRVTITCKSSQSLLYSTNQKNYLAWYQQKPGKAPKLLIYWASTRESGVPSRFSGSGSGTDFTLTISSLQPEDFATYYCQQYFIYPRTFGQGTKVEIK | 10 | 19 | 
2 | h26D3-HC6/LC1 (Fab, V domains shown, His-tagged Fab; also called double alanine mutant of h26D3 (VH Y55A, VL Y31A)) VH: EVQLVQSGAEVKKPGSSVKVSCKASGYIFTDYNMDWVRQAPGQGLEWIGDINPDADTTSYNEKFKGRATLTVDKSTSTAYMELSSLRSEDTAVYYCARGGYSGSSYYHPMDYWGQGTLVTVSS VL: DIQMTQSPSSVSASVGDRVTITCKSSQSLLASTNQKNYLAWYQQKPGKAPKLLIYWASTRESGVPSRFSGSGSGTDFTLTISSLQPEDFATYYCQQYFIYPRTFGQGTKVEIK |  |  | binds
3 | h26D3-HC10/LC1 (Fab, V domains shown, His-tagged Fab; also called double alanine mutant of h26D3 (VH Y106A, VL Y31A)) VH: EVQLVQSGAEVKKPGSSVKVSCKASGYIFTDYNMDWVRQAPGQGLEWIGDINPDYDTTSYNEKFKGRATLTVDKSTSTAYMELSSLRSEDTAVYYCARGGYSGSSAYHPMDYWGQGTLVTVSS VL: DIQMTQSPSSVSASVGDRVTITCKSSQSLLASTNQKNYLAWYQQKPGKAPKLLIYWASTRESGVPSRFSGSGSGTDFTLTISSLQPEDFATYYCQQYFIYPRTFGQGTKVEIK |  |  | binds
4 | h26D3 variant LC6 Fab (Fab, V domains shown, Single-mutant His-tagged Fab; also called Y100A) VH: EVQLVQSGAEVKKPGSSVKVSCKASGYIFTDYNMDWVRQAPGQGLEWIGDINPDYDTTSYNEKFKGRATLTVDKSTSTAYMELSSLRSEDTAVYYCARGGYSGSSYYHPMDYWGQGTLVTVSS VL: DIQMTQSPSSVSASVGDRVTITCKSSQSLLYSTNQKNYLAWYQQKPGKAPKLLIYWASTRESGVPSRFSGSGSGTDFTLTISSLQPEDFATYYCQQYFIAPRTFGQGTKVEIK | 8.5 | 9.4 | 
5 | h26D3 variant LC1 Fab (Fab, V domains shown, Single-mutant His-tagged Fab; also called Y31A) VH: EVQLVQSGAEVKKPGSSVKVSCKASGYIFTDYNMDWVRQAPGQGLEWIGDINPDYDTTSYNEKFKGRATLTVDKSTSTAYMELSSLRSEDTAVYYCARGGYSGSSYYHPMDYWGQGTLVTVSS VL: DIQMTQSPSSVSASVGDRVTITCKSSQSLLASTNQKNYLAWYQQKPGKAPKLLIYWASTRESGVPSRFSGSGSGTDFTLTISSLQPEDFATYYCQQYFIYPRTFGQGTKVEIK | 14 | 70 | 
6 | h26D3-HC6/LC5 (Fab, V domains shown, His-tagged Fab; also called double alanine mutant of h26D3 (VH Y55A, VL Y97A)) VH: EVQLVQSGAEVKKPGSSVKVSCKASGYIFTDYNMDWVRQAPGQGLEWIGDINPDADTTSYNEKFKGRATLTVDKSTSTAYMELSSLRSEDTAVYYCARGGYSGSSYYHPMDYWGQGTLVTVSS VL: DIQMTQSPSSVSASVGDRVTITCKSSQSLLYSTNQKNYLAWYQQKPGKAPKLLIYWASTRESGVPSRFSGSGSGTDFTLTISSLQPEDFATYYCQQAFIYPRTFGQGTKVEIK |  |  | binds
7 | h26D3-HC8/LC1 (Fab, V domains shown, His-tagged Fab; also called double alanine mutant of h26D3 (VH Y60A, VL Y31A)) VH: EVQLVQSGAEVKKPGSSVKVSCKASGYIFTDYNMDWVRQAPGQGLEWIGDINPDYDTTSANEKFKGRATLTVDKSTSTAYMELSSLRSEDTAVYYCARGGYSGSSYYHPMDYWGQGTLVTVSS VL: DIQMTQSPSSVSASVGDRVTITCKSSQSLLASTNQKNYLAWYQQKPGKAPKLLIYWASTRESGVPSRFSGSGSGTDFTLTISSLQPEDFATYYCQQYFIYPRTFGQGTKVEIK |  |  | binds
8 | h26D3-HC3/LC5 (Fab, V domains shown, His-tagged Fab; also called double alanine mutant of h26D3 (VH D35A, VL Y97A)) VH: EVQLVQSGAEVKKPGSSVKVSCKASGYIFTDYNMAWVRQAPGQGLEWIGDINPDYDTTSYNEKFKGRATLTVDKSTSTAYMELSSLRSEDTAVYYCARGGYSGSSYYHPMDYWGQGTLVTVSS VL: DIQMTQSPSSVSASVGDRVTITCKSSQSLLYSTNQKNYLAWYQQKPGKAPKLLIYWASTRESGVPSRFSGSGSGTDFTLTISSLQPEDFATYYCQQAFIYPRTFGQGTKVEIK |  |  | binds
9 | h26D3 variant HC11 Fab (Fab, V domains shown, Single-mutant His-tagged Fab; also called Y107A) VH: EVQLVQSGAEVKKPGSSVKVSCKASGYIFTDYNMDWVRQAPGQGLEWIGDINPDYDTTSYNEKFKGRATLTVDKSTSTAYMELSSLRSEDTAVYYCARGGYSGSSYAHPMDYWGQGTLVTVSS VL: DIQMTQSPSSVSASVGDRVTITCKSSQSLLYSTNQKNYLAWYQQKPGKAPKLLIYWASTRESGVPSRFSGSGSGTDFTLTISSLQPEDFATYYCQQYFIYPRTFGQGTKVEIK | 388 | 2.7 | 
10 | h26D3 variant HC10 Fab (Fab, V domains shown, Single-mutant His-tagged Fab; also called Y106A) VH: EVQLVQSGAEVKKPGSSVKVSCKASGYIFTDYNMDWVRQAPGQGLEWIGDINPDYDTTSYNEKFKGRATLTVDKSTSTAYMELSSLRSEDTAVYYCARGGYSGSSAYHPMDYWGQGTLVTVSS VL: DIQMTQSPSSVSASVGDRVTITCKSSQSLLYSTNQKNYLAWYQQKPGKAPKLLIYWASTRESGVPSRFSGSGSGTDFTLTISSLQPEDFATYYCQQYFIYPRTFGQGTKVEIK | 9.2 | 4.6 | 
11 | h26D3-HC8/LC5 (Fab, V domains shown, His-tagged Fab; also called double alanine mutant of h26D3 (VH Y60A, VL Y97A)) VH: EVQLVQSGAEVKKPGSSVKVSCKASGYIFTDYNMDWVRQAPGQGLEWIGDINPDYDTTSANEKFKGRATLTVDKSTSTAYMELSSLRSEDTAVYYCARGGYSGSSYYHPMDYWGQGTLVTVSS VL: DIQMTQSPSSVSASVGDRVTITCKSSQSLLYSTNQKNYLAWYQQKPGKAPKLLIYWASTRESGVPSRFSGSGSGTDFTLTISSLQPEDFATYYCQQAFIYPRTFGQGTKVEIK |  |  | binds
12 | h26D3-HC3/LC1 (Fab, V domains shown, His-tagged Fab; also called double alanine mutant of h26D3 (VH D35A, VL Y31A)) VH: EVQLVQSGAEVKKPGSSVKVSCKASGYIFTDYNMAWVRQAPGQGLEWIGDINPDYDTTSYNEKFKGRATLTVDKSTSTAYMELSSLRSEDTAVYYCARGGYSGSSYYHPMDYWGQGTLVTVSS VL: DIQMTQSPSSVSASVGDRVTITCKSSQSLLASTNQKNYLAWYQQKPGKAPKLLIYWASTRESGVPSRFSGSGSGTDFTLTISSLQPEDFATYYCQQYFIYPRTFGQGTKVEIK |  |  | binds
13 | h26D3-HC10/LC5 (Fab, V domains shown, His-tagged Fab; also called double alanine mutant of h26D3 (VH Y106A, VL Y97A)) VH: EVQLVQSGAEVKKPGSSVKVSCKASGYIFTDYNMDWVRQAPGQGLEWIGDINPDYDTTSYNEKFKGRATLTVDKSTSTAYMELSSLRSEDTAVYYCARGGYSGSSAYHPMDYWGQGTLVTVSS VL: DIQMTQSPSSVSASVGDRVTITCKSSQSLLYSTNQKNYLAWYQQKPGKAPKLLIYWASTRESGVPSRFSGSGSGTDFTLTISSLQPEDFATYYCQQAFIYPRTFGQGTKVEIK |  |  | binds
